The text below walks through data of patent US20020068361A1, “METHODS OF EVALUATING SPECIFIC CELLULAR FUNCTIONS OF RECEPTOR PROTEIN TYROSINE KINASES IN A LIGAND INDEPENDENT MANNER” (priority 1997, published 2002).

For one experiment, the target named is T1, chick TRKA receptor (Gallus gallus, UniProt Q91009).
T1 construct: expressed in transfected cells
The experiment can be described thus: Antibody/ligand recognition of chick TRKA receptor. Format: binding, chicken. To be noted: immunoblot or immunoprecipitation; receptor activation. The text has this: (§1) The antibody preparation used in the experiments, called CTA, was a rabbit antibody raised against the entire extracellular domain of chicken TRKA expressed in COS cells. […] A useful control for these experiments was to activate the endogenous rat TRKA receptor without influencing the introduced chimeric receptor.
(§2) While the chick receptor became phosphorylated by both treatments, activation of the rat receptor was detected only after NGF addition. […] The effects of the CTA antibody preparation were therefore not attributable to activation of endogenous TRKA receptors.
Background: Immunoblotting shows a protein as a band on a membrane.

For another experiment, the target named is T2, rat TRKA receptor (Rattus norvegicus, UniProt P35739).
T2 construct: endogenous in cells
T2 sequence (P35739 33-799): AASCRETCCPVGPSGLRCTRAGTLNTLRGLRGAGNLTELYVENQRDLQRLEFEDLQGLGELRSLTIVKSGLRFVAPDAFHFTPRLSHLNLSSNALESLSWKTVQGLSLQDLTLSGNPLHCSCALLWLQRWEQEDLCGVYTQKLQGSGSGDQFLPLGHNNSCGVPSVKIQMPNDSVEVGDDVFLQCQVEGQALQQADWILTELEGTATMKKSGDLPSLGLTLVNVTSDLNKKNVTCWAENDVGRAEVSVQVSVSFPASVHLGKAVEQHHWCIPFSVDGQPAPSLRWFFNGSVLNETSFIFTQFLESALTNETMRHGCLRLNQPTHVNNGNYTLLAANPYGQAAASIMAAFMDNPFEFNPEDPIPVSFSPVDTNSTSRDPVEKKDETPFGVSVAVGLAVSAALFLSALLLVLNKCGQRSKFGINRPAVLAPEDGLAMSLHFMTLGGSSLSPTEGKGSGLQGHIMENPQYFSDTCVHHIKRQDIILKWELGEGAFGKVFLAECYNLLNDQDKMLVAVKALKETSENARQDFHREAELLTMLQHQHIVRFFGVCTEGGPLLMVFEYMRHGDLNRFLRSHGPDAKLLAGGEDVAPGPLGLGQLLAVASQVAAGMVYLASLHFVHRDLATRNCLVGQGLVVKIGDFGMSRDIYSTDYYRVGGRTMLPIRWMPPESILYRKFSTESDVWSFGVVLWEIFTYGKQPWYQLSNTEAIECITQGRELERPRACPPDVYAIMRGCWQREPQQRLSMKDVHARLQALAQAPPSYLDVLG
Briefly: Antibody/ligand recognition of rat TRKA receptor. In kind it is binding.
Source text: as §1, §2

T1 sequence (Q91009 15-778): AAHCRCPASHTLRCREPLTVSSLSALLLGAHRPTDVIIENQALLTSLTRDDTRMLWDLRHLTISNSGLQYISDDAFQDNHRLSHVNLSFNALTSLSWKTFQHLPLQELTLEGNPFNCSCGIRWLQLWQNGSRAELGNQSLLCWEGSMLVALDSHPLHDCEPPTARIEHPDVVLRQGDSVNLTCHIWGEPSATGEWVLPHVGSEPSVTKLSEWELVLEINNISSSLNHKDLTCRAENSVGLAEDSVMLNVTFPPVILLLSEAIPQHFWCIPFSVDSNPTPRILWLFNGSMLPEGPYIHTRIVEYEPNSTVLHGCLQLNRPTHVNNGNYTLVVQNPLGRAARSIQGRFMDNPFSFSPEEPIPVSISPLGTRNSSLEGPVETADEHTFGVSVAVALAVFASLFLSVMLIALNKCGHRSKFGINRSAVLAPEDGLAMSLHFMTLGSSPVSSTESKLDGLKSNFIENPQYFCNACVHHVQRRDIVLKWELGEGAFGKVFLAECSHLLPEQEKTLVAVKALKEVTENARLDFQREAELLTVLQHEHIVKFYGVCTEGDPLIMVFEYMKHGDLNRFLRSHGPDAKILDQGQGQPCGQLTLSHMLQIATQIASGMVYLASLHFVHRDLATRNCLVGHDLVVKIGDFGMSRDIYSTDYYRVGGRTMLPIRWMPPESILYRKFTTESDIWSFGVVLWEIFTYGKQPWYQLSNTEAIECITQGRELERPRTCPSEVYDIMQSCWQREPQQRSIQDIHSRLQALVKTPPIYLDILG

Turning to “NGF: nerve growth factor, ligand which binds to the extracellular region of the TRK receptor”, in the experiment with chick TRKA receptor, the “recognition of chick TRKA receptor” value was “binds both receptors”. In addition, the “recognition of rat TRKA receptor” value with rat TRKA receptor is recorded as “binds both receptors”.
